# Reference: patent US20210147523A1 (TEIJIN PHARMA, published 2021)
# Changes are numbered by the printed parent chain.
# B1: 49-0703G (antibody, IgG2b, V domains shown)
# VH: EVQLVESGGGLVQPGRSMKLSCAASGFTFSNHYMAWVRQAPTKGLEWVASISTGGGNTYYRDSVKGRFTISRDNAKSTLYLQMDSLRSEDTATYYCARQDYSNYMGGFAYWGQGTLVTVSS
# VL: QFVLTQPNSVSTNLGSTVKLSCKRSTGNIGNNYVNWYQQYEGRSPTTMIYRDDERPDGVPDRFSGSIDRSSNSALLTINNVQTEDEADYFCQSFSNGMFIFAGGTQLTVL
# B2: 33-0503E (antibody, IgG2b, V domains shown)
# VH: EVQLVESGGGLVRPGGSMKLSCGASGFIFDNYYMTWVRQAPTKGLEWVASISSSGGNTYYRDSVRGRFTISRDNAGNTLSLQMGSLRAEDTATYHCAKEGYRGRYFDYWGQGVMVTVSS
# VL: QVVLTQPNSVSTNLGSTVKLSCKRTTGNIGSNYVNWYQQHEGRSPTTMIYRDDERPDGVPDRFSGSIDRSSNSALLTINNVQTEDEAEYFCQSYSSGIIFGGGTKLTVL
# B3: 65-0810G (antibody, IgG2b, V domains shown)
# VH: EVHLVESGGGLVQPGRSMKLSCTASGFTFNNYYMAWVRQAPTKGLEWVASISTGGGYTYYRDSVKGRFTISRDNTGNTLYLQMDSLRSEDTATYYCARCWELPYWGQGVMVTVSS
# VL: QFVLTQPNSVSTNLGSTVKLSCRRSSGNIGNNYVNWYRQHEGRSPTTMIYRDDTRPDGVPNRFSGSIDRSSNSALLTINNVRPEDEAYYFCQSYSGSIYIFGGGTKLTVL
# What was measured:
# human SPNS2 F133A mutant = biological target: T1, human SPNS2 F133A mutant (human, UniProt Q8IVW8 1-549); experiment: flow cytometry
# T1 sequence: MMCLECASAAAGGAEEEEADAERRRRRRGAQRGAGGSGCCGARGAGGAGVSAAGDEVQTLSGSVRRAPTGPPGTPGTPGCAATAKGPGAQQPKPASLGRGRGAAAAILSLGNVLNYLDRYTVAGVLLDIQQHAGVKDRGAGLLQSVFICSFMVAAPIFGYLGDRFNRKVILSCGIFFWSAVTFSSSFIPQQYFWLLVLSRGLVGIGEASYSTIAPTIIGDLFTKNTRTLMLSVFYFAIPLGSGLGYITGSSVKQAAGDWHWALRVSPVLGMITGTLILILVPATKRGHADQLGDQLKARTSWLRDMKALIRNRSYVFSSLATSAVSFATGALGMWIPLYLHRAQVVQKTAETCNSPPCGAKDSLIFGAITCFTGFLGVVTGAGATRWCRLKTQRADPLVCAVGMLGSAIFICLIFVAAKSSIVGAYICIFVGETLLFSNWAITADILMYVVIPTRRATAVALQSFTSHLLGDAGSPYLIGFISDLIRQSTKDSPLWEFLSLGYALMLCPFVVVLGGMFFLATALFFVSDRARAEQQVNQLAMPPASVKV
# human SPNS2 K136A mutant = biological target: T2, human SPNS2 K136A mutant (human, UniProt Q8IVW8 1-549); experiment: flow cytometry
# T2 sequence: T1 sequence with A133F, K136A
# human SPNS2 R200A mutant = biological target: T3, human SPNS2 R200A mutant (human, UniProt Q8IVW8 1-549); experiment: flow cytometry
# T3 sequence: T1 sequence with A133F, R200A
# human SPNS2 W259A mutant = biological target: T4, human SPNS2 W259A mutant (human, UniProt Q8IVW8 1-549); experiment: flow cytometry
# T4 sequence: T1 sequence with A133F, W259A
# human SPNS2 = biological target: T5, human SPNS2 (human, UniProt Q8IVW8 1-549); experiment: cell-based or functional assay
# T5 sequence: T1 sequence with A133F
Binder,binding ratio vs native type (human SPNS2 F133A mutant) [ratio],binding ratio vs native type (human SPNS2 K136A mutant) [ratio],binding ratio vs native type (human SPNS2 R200A mutant) [ratio],binding ratio vs native type (human SPNS2 W259A mutant) [ratio],"pIC50, S1P transport inhibition (S1PR3 Ca2+ FLIPR bioassay) (human SPNS2)"
B1,< 0.5,< 0.5,< 0.5,< 0.5,7 pIC50 (M)
B2,,< 0.5,< 0.5,< 0.5,7 pIC50 (M)
B3,< 0.5,< 0.5,< 0.5,< 0.5,7.2 pIC50 (M)
